Molecular target: iC3b (Homo sapiens, UniProt P01024)
Experiment: Binding of soluble heterodimer / wild-type receptor to iC3b-sepharose (elution, SDS-PAGE, autoradiography)
Conditions: detergent soluble fraction of 125I-surface-labelled neutrophils, immunoprecipitated with 44a mAb from eluate
Procedure: CD11b^1089 /CD18^699 was next tested for its ability to bind iC3b (the receptor bound by wild-type CD11b/CD18). Briefly, COS cells were transfected CD11b^1089 and CD18^699 cDNA as described above. Cells were labeled with ^35 S-methionine as described by Dana et al., J. Clin. Invest. 79:1010 (1987). Supernatants from both co-transfected COS cells (7×10^6 cells) and mock-transfected COS cells (7×10^6 cells) were concentrated to one ml using collodion bags (10,000 MW cut off). 100 μl of the concentrated supernatant were used for immunoprecipitation, and the rest of the supernatant was incubated with C3b-sepharose or iC3b-sepharose. C3b-sepharose and iC3b-sepharose was washed, eluted with 0.4 M NaCl and the eluted proteins were analyzed by SDS-PAGE and autoradiography. Binding of wild-type, membrane-bound CD11b/CD18 to iC3b-sepharose or C3b-sepharose was performed as described by Arnaout et al., (In Methods in Enzymology, DiSabato, Ed., Acad. Press Inc., Fla., 1987) using the detergent soluble fraction from 1×10^8 125 I-surface-labelled neutrophils.
FIG. 3 illustrates the results of SDS-PAGE analysis of neutrophil-derived ^125 I-surface-labeled glycoproteins eluted from C3b-sepharose and iC3b-sepharose. Eluants from C3b-sepharose (lane a) contained complement receptor type 1 (250kD) and the C3-binding regulatory protein gp45/70 (45-70 kD). […]

Sequence of iC3b (P01024 23-667 limits assumed): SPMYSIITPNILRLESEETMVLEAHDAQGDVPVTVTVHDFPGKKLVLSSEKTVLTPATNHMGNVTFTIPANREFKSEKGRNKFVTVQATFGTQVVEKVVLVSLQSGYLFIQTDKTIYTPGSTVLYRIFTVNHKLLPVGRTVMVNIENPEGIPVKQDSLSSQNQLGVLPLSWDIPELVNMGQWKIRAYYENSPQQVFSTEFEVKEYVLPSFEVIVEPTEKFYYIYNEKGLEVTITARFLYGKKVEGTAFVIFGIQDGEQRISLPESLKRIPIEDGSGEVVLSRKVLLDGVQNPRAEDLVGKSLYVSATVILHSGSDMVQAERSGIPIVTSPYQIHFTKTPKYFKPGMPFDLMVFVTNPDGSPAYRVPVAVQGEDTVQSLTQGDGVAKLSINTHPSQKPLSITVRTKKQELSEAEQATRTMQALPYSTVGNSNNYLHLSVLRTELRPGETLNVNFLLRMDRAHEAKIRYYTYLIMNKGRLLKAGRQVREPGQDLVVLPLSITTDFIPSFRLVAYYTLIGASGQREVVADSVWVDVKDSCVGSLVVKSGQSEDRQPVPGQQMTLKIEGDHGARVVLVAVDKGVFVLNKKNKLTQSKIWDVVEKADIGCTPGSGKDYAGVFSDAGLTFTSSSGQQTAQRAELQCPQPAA
Sequence of iC3b (P01024 749-954 limits assumed): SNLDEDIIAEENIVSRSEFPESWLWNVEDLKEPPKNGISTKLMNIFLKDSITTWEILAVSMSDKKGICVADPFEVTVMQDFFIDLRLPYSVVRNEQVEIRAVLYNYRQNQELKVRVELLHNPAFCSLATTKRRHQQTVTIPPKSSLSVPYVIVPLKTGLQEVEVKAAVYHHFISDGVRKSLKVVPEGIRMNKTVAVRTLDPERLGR
Sequence of iC3b (P01024 955-1303 limits assumed): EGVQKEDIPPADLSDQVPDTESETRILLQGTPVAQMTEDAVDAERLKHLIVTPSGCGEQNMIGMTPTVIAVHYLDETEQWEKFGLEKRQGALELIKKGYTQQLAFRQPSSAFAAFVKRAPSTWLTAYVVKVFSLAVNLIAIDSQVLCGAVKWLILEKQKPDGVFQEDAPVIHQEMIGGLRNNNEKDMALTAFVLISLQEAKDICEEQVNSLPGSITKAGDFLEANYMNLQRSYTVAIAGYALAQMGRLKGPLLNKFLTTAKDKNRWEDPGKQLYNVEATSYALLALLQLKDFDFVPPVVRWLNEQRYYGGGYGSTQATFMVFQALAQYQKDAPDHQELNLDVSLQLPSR
Sequence of iC3b (P01024 1321-1663 limits assumed): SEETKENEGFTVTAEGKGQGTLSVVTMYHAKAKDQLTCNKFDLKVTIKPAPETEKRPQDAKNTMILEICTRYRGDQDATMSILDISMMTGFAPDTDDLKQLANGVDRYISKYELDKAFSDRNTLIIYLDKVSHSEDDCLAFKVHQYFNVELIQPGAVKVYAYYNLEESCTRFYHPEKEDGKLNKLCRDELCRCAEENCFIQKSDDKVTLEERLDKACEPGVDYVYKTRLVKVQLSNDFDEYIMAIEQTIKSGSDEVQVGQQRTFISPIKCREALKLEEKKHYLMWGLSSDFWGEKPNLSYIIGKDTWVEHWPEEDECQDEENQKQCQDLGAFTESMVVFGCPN

Substance: CD11b/CD18: wild-type, membrane-bound CD11b/CD18 from surface-labelled neutrophils
- binding to iC3b-sepharose: eluted from iC3b-sepharose

— patent US5877275A, “Controlling cellular immune/inflammatory responses with β2 integrins” (The General Hospital Corporation, priority 1995, dated 1999)
